Test results from US20200317817A1 (XOMA US, published 2020).

How the values were obtained:
[1] = molecular target: T1, human PTH1R overexpressed on Saos-2 cells (human, UniProt Q03431 27-593); experiment: flow cytometry on Saos-2 cells overexpressing human PTH1R, in the presence of 1 uM PTH, PE anti-human IgG
T1 construct: whole, on cells; also called Saos-2 human PTH1R cells
T1 sequence (looked up): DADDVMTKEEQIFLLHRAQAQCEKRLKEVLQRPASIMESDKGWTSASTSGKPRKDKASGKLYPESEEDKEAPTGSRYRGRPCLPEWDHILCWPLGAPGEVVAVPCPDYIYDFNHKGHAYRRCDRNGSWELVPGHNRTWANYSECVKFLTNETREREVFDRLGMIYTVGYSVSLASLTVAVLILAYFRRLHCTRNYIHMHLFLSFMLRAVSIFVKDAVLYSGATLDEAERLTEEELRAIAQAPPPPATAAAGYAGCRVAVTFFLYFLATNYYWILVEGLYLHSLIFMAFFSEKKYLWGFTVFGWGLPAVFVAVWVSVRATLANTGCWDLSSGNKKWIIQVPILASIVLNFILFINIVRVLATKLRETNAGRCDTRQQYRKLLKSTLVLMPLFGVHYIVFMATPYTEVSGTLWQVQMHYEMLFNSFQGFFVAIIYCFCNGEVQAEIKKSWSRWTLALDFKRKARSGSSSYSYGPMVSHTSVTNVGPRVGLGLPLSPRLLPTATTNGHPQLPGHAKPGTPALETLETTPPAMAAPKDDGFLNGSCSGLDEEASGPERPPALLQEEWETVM

[2] = molecular target: T2, human PTH1R on Saos-2 cells (endogenous) (human, UniProt Q03431 27-593); experiment: cell-based or functional assay
T2 sequence (looked up): T1 sequence (looked up)

[3] = molecular target: T3, mouse PTH1R overexpressed on CHO cells (mouse, UniProt P41593 27-591); experiment: cell-based or functional assay
T3 sequence (looked up): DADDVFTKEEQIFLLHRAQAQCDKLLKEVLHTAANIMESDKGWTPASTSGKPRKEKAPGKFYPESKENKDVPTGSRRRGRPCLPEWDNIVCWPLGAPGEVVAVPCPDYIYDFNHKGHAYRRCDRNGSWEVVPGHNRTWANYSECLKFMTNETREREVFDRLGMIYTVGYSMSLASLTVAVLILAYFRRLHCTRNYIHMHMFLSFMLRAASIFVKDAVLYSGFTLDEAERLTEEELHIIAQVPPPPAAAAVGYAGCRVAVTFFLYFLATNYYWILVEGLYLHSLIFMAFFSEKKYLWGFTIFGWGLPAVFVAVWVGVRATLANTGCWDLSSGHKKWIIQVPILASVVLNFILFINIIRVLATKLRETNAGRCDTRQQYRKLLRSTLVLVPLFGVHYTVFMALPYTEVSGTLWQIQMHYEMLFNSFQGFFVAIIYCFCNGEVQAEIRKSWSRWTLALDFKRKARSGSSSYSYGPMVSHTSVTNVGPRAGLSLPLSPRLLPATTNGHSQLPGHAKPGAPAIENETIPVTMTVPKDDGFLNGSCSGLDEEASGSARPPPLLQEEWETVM

[4] = molecular target: T4, human PTH1R overexpressed on CHO cells (human, UniProt Q03431 27-593); experiment: cell-based or functional assay
T4 sequence (looked up): T1 sequence (looked up)

[5] = molecular target: T5, human PTH2R overexpressed on CHO cells (human, UniProt P49190 25-550); experiment: flow cytometry on CHO cells overexpressing human PTH2R, 1 hr at 4 C, APC anti-human IgG
T5 construct: whole, on cells; also called CHO human PTH2R
T5 sequence (P49190 25-550): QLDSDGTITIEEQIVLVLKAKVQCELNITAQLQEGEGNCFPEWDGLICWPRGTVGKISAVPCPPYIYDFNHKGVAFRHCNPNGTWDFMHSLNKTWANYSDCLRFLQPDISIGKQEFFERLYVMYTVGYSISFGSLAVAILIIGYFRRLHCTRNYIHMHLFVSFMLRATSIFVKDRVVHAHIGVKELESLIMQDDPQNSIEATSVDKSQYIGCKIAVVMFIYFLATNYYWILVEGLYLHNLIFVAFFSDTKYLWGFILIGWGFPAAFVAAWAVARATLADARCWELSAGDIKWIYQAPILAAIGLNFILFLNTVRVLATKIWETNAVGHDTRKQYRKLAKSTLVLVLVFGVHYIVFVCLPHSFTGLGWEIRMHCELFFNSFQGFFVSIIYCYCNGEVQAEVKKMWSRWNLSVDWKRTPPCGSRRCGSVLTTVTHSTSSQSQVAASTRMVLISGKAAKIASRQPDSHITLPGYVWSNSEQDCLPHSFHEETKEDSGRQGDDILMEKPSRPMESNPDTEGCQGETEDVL
Method: Increasing concentrations of anti-PTH1R antibodies were added to CHO cells overexpressing human PTH2R and incubated for 1 hr at 4° C. (FIG. 8). Cells were washed twice with FACS Buffer and antibody binding was detected with anti-human IgG APC. […] Anti-KLH.G2 was used a negative control for binding.
PTH2R has a 51% homology to PTH1R. […] Following two washes, cells were incubated with Allophycocyanin (APC) AffiniPure F(ab′)₂ Fragment Goat Anti-Human IgG (H+L) (Jackson ImmunoResearch, West Grove, Pa.) for 20 minutes at 4° C. Cells were washed twice and resuspended in FACS Buffer. Samples were acquired using BD Cytometer (BD Biosciences, San Jose, Calif.) and data were analyzed using FlowJo (FlowJo, LLC, Ashland, Oreg.) and Prism (GraphPad Software, La Jolla, Calif.). […] Anti-KLH.G2 was used a negative control for binding.

[6] = molecular target: T1, human PTH1R overexpressed on Saos-2 …; experiment: flow cytometry on Saos-2 cells overexpressing human PTH1R, antibody alone, PE anti-human IgG
[7] = molecular target: T1, human PTH1R overexpressed on Saos-2 …; experiment: flow cytometry on Saos-2 cells overexpressing human PTH1R, in the presence of 3 uM PTHrP, PE anti-human IgG
Text: Antibody binding was detected with R-Phycoerythrin anti-human IgG.

[8] = molecular target: T6, recombinant N-terminal extracellular domain of the human PTH1R receptor (human, UniProt Q03431 27-188, limits assumed); experiment: SPR, IgG captured, ECD injected
T6 construct: domain: N-terminal extracellular domain; Bought reagent; also called N-ECD PTH1R; PTH1R N-terminal ECD
T6 sequence (looked up): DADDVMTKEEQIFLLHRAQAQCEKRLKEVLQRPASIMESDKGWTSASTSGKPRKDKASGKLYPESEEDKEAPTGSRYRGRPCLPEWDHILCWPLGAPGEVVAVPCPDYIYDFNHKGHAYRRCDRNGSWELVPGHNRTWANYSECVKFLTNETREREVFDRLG
Procedure, shortened: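 Antibodies (0.5 μg/mL) captured on anti-human IgG-Fc chip to 100–200 RU in HBS-EP+ with 2.5 mg/mL BSA; receptor ECD injected at 30 μL/minute for 240 s, 360 s dissociation, 3M MgCl regeneration. Double-referenced data fit globally for ka and kd; KD=kd/kₐ.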

B1: XPA.85.328 (antibody, V domains shown)
VH: QMQLVQSGAEVKKPGSSVKVSCKASGGTFSSYAISWVRQAPGQGLEWMGGIIPIFGTANYAQKFQGRVTITADESTSTAYMELSSLRSEDTAVYYCARGYVVARLWGQGTLVTVSS
VL: DVVMTQTPLSLSVTPGQPASISCKSSQSLLHIDGKTYLYWYLQKSGQSPQLLIYEVSNRFSGVPDTFSGSGSGTDFTLKISRVEAEDVGVYYCMQSLHFPITFGQGTRLEIK
notes: IgG; also called Ab328
EC50 [1]: 67.4 nM
EC50 of antibody, neutralization of M-CSF production induced by 12.5 nM PTHrP (1-36) [2]: 6.6 nM
fold shift of the PTHrP (1-36) dose response, M-CSF secretion by Saos-2 cells, 40 µg/mL antibody [2]: > 200 fold
IC50, inhibition of PTHrP(1-34)-induced cAMP accumulation [3]: 2.23 nM
IC50, inhibition of PTH(1-34)-induced cAMP accumulation [4]: 11.8 nM
IC50, inhibition of PTHrP(1-34)-induced cAMP accumulation [4]: 7.06 nM
binding result [5]: no binding (tested: about 160 nM)
EC50 [6]: 4.4 nM
EC50 [7]: 465 nM
Kd [8]: 0.32 nM
koff [8]: 0.00018 s⁻¹
kon [8]: 560000 M⁻¹ s⁻¹
